This note sets out measurements from patent US20150344580A1 (MSM PROTEIN TECHNOLOGIES, published 2015).

A word on the EC50: it is the concentration at which the effect is half-maximal. A higher EC50 goes with lower potency in that assay. In general, IC50 refers to the concentration needed to halve the response being measured. Low readings indicate higher potency, high ones lower potency.

Assay [1] has as its target T1, human chemokine receptor CCR7 (human, UniProt P32248 25-378).
T1 construct: On CHO, BHK, R1610 and Chem-1 transfectants and, natively, on human PBMC and the leukemia lines JVM-13 and CLL-AAT; also called human CCR7; hCCR7
T1 sequence: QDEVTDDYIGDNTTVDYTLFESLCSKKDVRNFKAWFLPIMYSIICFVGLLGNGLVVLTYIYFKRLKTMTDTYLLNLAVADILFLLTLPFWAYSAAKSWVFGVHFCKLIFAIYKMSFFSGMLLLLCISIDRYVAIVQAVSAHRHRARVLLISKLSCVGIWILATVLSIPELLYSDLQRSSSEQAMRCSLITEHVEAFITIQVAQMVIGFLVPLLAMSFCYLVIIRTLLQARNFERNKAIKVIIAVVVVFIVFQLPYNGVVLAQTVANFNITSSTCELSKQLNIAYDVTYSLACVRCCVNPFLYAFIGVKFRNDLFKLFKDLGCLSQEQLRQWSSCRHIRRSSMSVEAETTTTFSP
The assay can be described thus: flow cytometry titration, CHO cells expressing human CCR7. On the technique in general: A flow cytometer gives signals particle by particle.

Assay [2] has as its target T1, human chemokine receptor CCR7. The assay can be described thus: flow cytometry titration, CHO-human CCR7 cells, anti-human Fc-PE. The method, then: The affinity of IgG1 antibodies to human CCR7 was evaluated by measuring mean fluorescence value (MFI) of cells expressing CCR7 in the presence of varying concentration of antibody in question, upon staining of bound to the cells antibodies with a commercial anti-human antibody-PE conjugate. The data of such experiments are depicted in FIGS. 9, 10, and 11. In these experiments binding of some antibodies to parental cells or cells expressing mouse CCR7 was also quantitatively characterized by obtaining EC₅₀ value (a concentration of IgG1 at which half-maximum MFI is achieved) for each curve using the SoftMaxPro5 program.

The target is the same in assay [3]. The assay can be described thus: flow cytometry titration on CCR7 over-expressing cells (direct binding, printed as IC50).
Assay [4] shares this target. The assay can be described thus: cell-based or functional assay.

B1: MSM-R707BI (fully human anti-human CCR7 antibody, IgG1) (antibody, V domains shown)
VH: EVQLLESGGGLVQPGGSLRLSCAASGFTFSNYAIHWVRQAPGKGLEWVSAITPRGGYTYYADSVKGRFTISRDNSKNTLYLQMNSLRAEDTAVYYCARGLTISYTPGFDYWGQGTLVTVSS
VL: not shown
notes: IgG1 format; HC CDR3 derivative of MSM-R707; also called MSM-R7707BI; R707B1
For B1, the figures for the EC50 in assay [1] and in assay [2] were 6.7 nM and 5.5 nM, respectively.

B2: MSM R735 in IgG4 format (antibody)
heavy: EVQLLESGGGLVQPGGSLRLSCAASGFTFSNYNMHWVRQAPGKGLEWVSGIGPRRGRTYYADSVKGRFTISRDNSKNTLYLQMNSLRAEDTAVYYCARSYAYQYRGLDYWGQGTLVTVSSASTKGPSVFPLAPCSRSTSESTAALGCLVKDYFPEPVTVSWNSGALTSGVHTFPAVLQSSGLYSLSSVVTVPSSSLGTKTYTCNVDHKPSNTKVDKRVESKYGPPCPSCPAPEFLGGPSVFLFPPKPKDTLMISRTPEVTCVVVDVSQEDPEVQFNWYVDGVEVHNAKTKPREEQFNSTYRVVSVLTVLHQDWLNGKEYKCKVSNKGLPSSIEKTISKAKGQPREPQVYTLPPSQEEMTKNQVSLTCLVKGFYPSDIAVEWESNGQPENNYKTTPPVLDSDGSFFLYSRLTVDKSRWQEGNVFSCSVMHEALHNHYTQKSLSLSPGK
light: EIVLTQSPGTLSLSPGERATLSCRASQSVSSSYLAWYQQKPGQAPRLLIYGASSRATGIPDRFSGSGSGTDFTLTISRLEPEDFAVYYCQQGSPVTFGQGTKVEIKRTVAAPSVFIFPPSDEQLKSGTASVVCLLNNFYPREAKVQWKVDNALQSGNSQESVTEQDSKDSTYSLSSTLTLSKADYEKHKVYACEVTHQGLSSPVTKSFNRGEC
notes: also called IgG4 formatted MSM R735
In turn, B2 had an IC50 in assay [3] of 2.5 to 5.3 nM. In addition, in assay [4], the “IC50 of inhibition of CCL19-induced Ca-flux in cells expressing human CCR7” value came to 128 nM.

B3: MSM R707 in IgG4 format (antibody)
heavy: EVQLLESGGGLVQPGGSLRLSCAASGFTFSNYAIHWVRQAPGKGLEWVSAITPRGGYTYYADSVKGRFTISRDNSKNTLYLQMNSLRAEDTAVYYCARGLTMMYTPGMDYWGQGTLVTVSSASTKGPSVFPLAPCSRSTSESTAALGCLVKDYFPEPVTVSWNSGALTSGVHTFPAVLQSSGLYSLSSVVTVPSSSLGTKTYTCNVDHKPSNTKVDKRVESKYGPPCPSCPAPEFLGGPSVFLFPPKPKDTLMISRTPEVTCVVVDVSQEDPEVQFNWYVDGVEVHNAKTKPREEQFNSTYRVVSVLTVLHQDWLNGKEYKCKVSNKGLPSSIEKTISKAKGQPREPQVYTLPPSQEEMTKNQVSLTCLVKGFYPSDIAVEWESNGQPENNYKTTPPVLDSDGSFFLYSRLTVDKSRWQEGNVFSCSVMHEALHNHYTQKSLSLSPGK
light: not shown
notes: also called IgG4 R707; IgG4 formatted MSM R707
B3: the IC50 in assay [3] is 4.9 to 7.6 nM. Also, in assay [4], the “IC50 of inhibition of Ca-flux induced by 18 nM CCL19, Chem-1 CCR7h cells” value is about 20 nM.
